Measured values from paper PMC11446282.

T1: B55α (Homo sapiens, UniProt P63151)
T1 construct: His; made in house; host or cells: HEK293 cells
T1 sequence (P63151 1-447): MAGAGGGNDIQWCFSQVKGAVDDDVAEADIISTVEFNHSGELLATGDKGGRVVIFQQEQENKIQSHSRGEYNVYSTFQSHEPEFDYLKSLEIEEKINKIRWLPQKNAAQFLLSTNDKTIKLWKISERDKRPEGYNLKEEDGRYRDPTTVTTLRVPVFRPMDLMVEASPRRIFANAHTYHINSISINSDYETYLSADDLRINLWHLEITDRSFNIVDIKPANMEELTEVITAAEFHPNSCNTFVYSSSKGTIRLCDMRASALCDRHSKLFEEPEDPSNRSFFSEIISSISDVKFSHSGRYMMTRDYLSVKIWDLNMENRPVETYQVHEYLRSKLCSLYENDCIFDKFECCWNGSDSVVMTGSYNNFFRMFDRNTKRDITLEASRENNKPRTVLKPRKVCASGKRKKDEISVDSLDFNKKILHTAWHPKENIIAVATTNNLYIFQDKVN

B1: Arpp19: full-length Arpp19 protein (S62E in the SPR method) (protein, UniProt P56211 1-112, looked up, variant S62E)
chain: MSAEVPEAASAEEQKEMEDKVTSPEKAEEAKLKARYPHLGQKPGGSDFLRKRLQKGQKYFDEGDYNMAKAKMKNKQLPTAAPDKTEVTGDHIPTPQDLPQRKPSLVASKLAG
modifications: full-length
B2: PME1: full-length PME1 protein expressed in BL21(DE3) (protein)
chain: MSALEKSMHLGRLPSRPPLPGSGGSQSGAKMRMGPGRKRDFSPVPWSQYFESMEDVEVENETGKDTFRVYKSGSEGPVLLLLHGGGHSALSWAVFTAAIISRVQCRIVALDLRSHGETKVKNPEDLSAETMAKDVGNVVEAMYGDLPPPIMLIGHSMGGAIAVHTASSNLVPSLLGLCMIDVVEGTAMDALNSMQNFLRGRPKTFKSLENAIEWSVKSGQIRNLESARVSMVGQVKQCEGITSPEGSKSIVEGIIEEEEEDEEGSESISKRKKEDDMETKKDHPYTWRIELAKTEKYWDGWFRGLSNLFLSCPIPKLLLLAGVDRLDKDLTIGQMQGKFQMQVLPQCGHAVHEDAPDKVAEAVATFLIRHRFAEPIGGFQCVFPGC

Molecular target: T1, B55α
Assay: Surface plasmon resonance with captured Twin-Strep B55α
Assay type: binding
Conditions: same SPR approach as for B55i; fig. S15

Molecule | binding to B55α, affinity range
B1 | low micromolar
B2 | low micromolar
